According to the Immune Epitope Database (IEDB):

Experiments:
HLA-A*02:06 = assay: IEDB peptide-MHC binding, purified MHC/competitive/radioactivity; filed as Kd, often an IC50 or EC50 that approximates it; ≥ and ≤ were set here for values at or beyond the usual limits of such assays
HLA-A*02:17 = assay: as above
HLA-B*51:01 [1] = assay: as above; conditions: source organism: Dengue virus 1 Singapore/S275/1990
HLA-A*02:01 [2] = assay: as above
HLA-A*32:01 = assay: as above
HLA-B*57:01 = assay: as above
HLA-B*58:01 [3] = assay: as above
HLA-A*02:03 = assay: as above
HLA-A*30:01 = assay: as above; conditions: source organism: Dengue virus 2 Peru/IQT2913/1996
HLA-A*68:02 = assay: as above
HLA-B*08:01 [4] = assay: as above; conditions: source organism: Dengue virus 2 Jamaica/1409/1983
HLA-B*15:01 [5] = assay: as above; conditions: source organism: Dengue virus 2 Jamaica/1409/1983
HLA-B*40:01 = assay: IEDB peptide-MHC binding, purified MHC/direct/fluorescence; filed as Kd, often an IC50 or EC50 that approximates it; ≥ and ≤ were set here for values at or beyond the usual limits of such assays
HLA-A*11:01 = assay: as above
HLA-A*24:03 = assay: as above
HLA-A*03:01 = assay: as above
HLA-A*31:01 = assay: as above
HLA-B*07:02 = assay: as above
HLA-B*08:01 [6] = assay: as above
HLA-B*27:05 = assay: as above
HLA-A*69:01 [7] = assay: as above
HLA-A*26:01 [8] = assay: as above
HLA-A*02:01 [9] = assay: as above
HLA-B*58:01 [10] = assay: as above
HLA-B*15:01 [11] = assay: as above
HLA-B*44:02 = assay: as above
HLA-A*01:01 [12] = assay: as above
HLA-A*26:01 [13] = assay: IEDB peptide-MHC binding, purified MHC/competitive/radioactivity; filed as Kd, often an IC50 or EC50 that approximates it; ≥ and ≤ were set here for values at or beyond the usual limits of such assays
HLA-A*24:02 = assay: as above; conditions: source organism: Dengue virus 1 Brazil/97-11/1997
HLA-A*23:01 = assay: as above; conditions: source organism: Dengue virus 1 Brazil/97-11/1997
HLA-A*01:01 [14] = assay: as above; conditions: source organism: Dengue virus 1 Brazil/97-11/1997
HLA-B*46:01 = assay: IEDB peptide-MHC binding, purified MHC/competitive/fluorescence; filed as Kd, often an IC50 or EC50 that approximates it; ≥ and ≤ were set here for values at or beyond the usual limits of such assays; conditions: source organism: Homo sapiens
HLA-B*51:01 [15] = assay: as above; conditions: source organism: Homo sapiens
HLA-A*69:01 [16] = assay: as above; conditions: source organism: Homo sapiens
HLA-A*26:01 [17] = assay: as above; conditions: source organism: Homo sapiens
HLA-A*02:01 [18] = assay: as above; conditions: source organism: Homo sapiens
HLA-B*39:01 = assay: as above; conditions: source organism: Homo sapiens
HLA-B*27:03 = assay: as above; conditions: source organism: Homo sapiens
HLA-B*53:01 = assay: IEDB peptide-MHC binding, purified MHC/competitive/radioactivity; filed as Kd, often an IC50 or EC50 that approximates it; ≥ and ≤ were set here for values at or beyond the usual limits of such assays; conditions: source organism: Dengue virus 4 Philippines/H241/1956
[19] = source organism: Dengue virus 1 Singapore/S275/1990
[20] = source organism: Dengue virus 2 Jamaica/1409/1983
[21] = source organism: Dengue virus 1 Brazil/97-11/1997
[22] = source organism: Dengue virus 2 Peru/IQT2913/1996
[23] = source organism: Dengue virus 2 Thailand/NGS-C/1944
[24] = source organism: Dengue virus 3 Martinique/1243/1999
[25] = source organism: Salmonella enterica subsp. enterica serovar Typhimurium
[26] = source organism: Dengue virus 4 Philippines/H241/1956
[27] = source organism: Dengue virus 3 Sri Lanka/1266/2000
[28] = source organism: Salmonella enterica subsp. enterica serovar Typhi

## FSLGLLCISI
HLA-A*02:06; [19]
  Kd: 2.6 nM
HLA-A*02:17; [19]
  Kd: 942 nM
HLA-B*51:01 [1]
  Kd: ≥ 40800 nM
HLA-A*02:01 [2]; [19]
  Kd: 7.58 nM

## RVLNLVENW
HLA-A*32:01; [20]
  Kd: 21.3 nM
HLA-B*57:01; [20]
  Kd: 2.43 nM
HLA-B*58:01 [3]; [20]
  Kd: 1.34 nM

## LSSLLKNDVP
HLA-B*57:01; [21]
  Kd: 7260 nM
HLA-B*58:01 [3]; [21]
  Kd: 819 nM

## KGKRIEPSW
HLA-B*57:01; [20]
  Kd: 13.1 nM
HLA-B*58:01 [3]; [20]
  Kd: 11.2 nM

## IGLTSRATW
HLA-B*57:01; [20]
  Kd: 6.87 nM
HLA-B*58:01 [3]; [20]
  Kd: 6.11 nM

## GMIIMLIPTV
HLA-A*02:03; [22]
  Kd: 4.49 nM
HLA-A*02:06; [22]
  Kd: 94.7 nM
HLA-A*02:17; [23]
  Kd: 6590 nM
HLA-A*30:01
  Kd: 12600 nM
HLA-A*02:01 [2]; [23]
  Kd: 70.9 nM

## SASRAWNVWE
HLA-B*57:01; [24]
  Kd: 279 nM
HLA-B*58:01 [3]; [24]
  Kd: 53.9 nM

## TIMAAILAYT
HLA-A*02:03; [20]
  Kd: 9.23 nM
HLA-A*02:17; [20]
  Kd: 12200 nM
HLA-A*68:02; [20]
  Kd: 86.8 nM
HLA-A*02:01 [2]; [20]
  Kd: 33.4 nM

## VLSIVSLFPL
HLA-B*57:01; [21]
  Kd: 108 nM
HLA-A*02:17; [19]
  Kd: 8 nM
HLA-A*02:01 [2]; [19]
  Kd: 8.47 nM

## LMMRTTWAL
HLA-A*02:03; [20]
  Kd: 0.47 nM
HLA-A*02:06; [20]
  Kd: 8.05 nM
HLA-A*02:17; [20]
  Kd: 35.9 nM
HLA-B*08:01 [4]
  Kd: 1.32 nM
HLA-A*02:01 [2]; [20]
  Kd: 1.35 nM
HLA-B*15:01 [5]
  Kd: 0.12 nM

## NSDYMMWVG
HLA-B*40:01; [25]
  Kd: ≥ 20000 nM
HLA-A*11:01; [25]
  Kd: ≥ 20000 nM
HLA-A*24:03; [25]
  Kd: ≥ 20000 nM
HLA-A*03:01; [25]
  Kd: ≥ 20000 nM
HLA-A*31:01; [25]
  Kd: ≥ 20000 nM
HLA-B*07:02; [25]
  Kd: ≥ 20000 nM
HLA-B*08:01 [6]; [25]
  Kd: ≥ 20000 nM
HLA-B*27:05; [25]
  Kd: ≥ 20000 nM
HLA-A*69:01 [7]; [25]
  Kd: ≥ 20000 nM
HLA-A*26:01 [8]; [25]
  Kd: ≥ 20000 nM
HLA-A*02:01 [9]; [25]
  Kd: ≥ 20000 nM
HLA-B*58:01 [10]; [25]
  Kd: ≥ 20000 nM
HLA-B*15:01 [11]; [25]
  Kd: ≥ 20000 nM
HLA-B*44:02; [25]
  Kd: ≥ 20000 nM
HLA-A*01:01 [12]; [25]
  Kd: ≥ 20000 nM

## MLLILCVTQV
HLA-A*02:03; [20]
  Kd: 18.2 nM
HLA-A*02:06; [20]
  Kd: 7.91 nM
HLA-A*02:17; [20]
  Kd: 158 nM
HLA-A*02:01 [2]; [20]
  Kd: 4.15 nM

## VTAKWLWGF
HLA-A*26:01 [13]; [21]
  Kd: 12800 nM
HLA-B*58:01 [3]; [21]
  Kd: 59 nM
HLA-A*24:02
  Kd: 241 nM
HLA-A*23:01
  Kd: 417 nM
HLA-A*01:01 [14]
  Kd: 13900 nM

## TMFGGVSWMV
HLA-A*02:03; [26]
  Kd: 65.1 nM
HLA-A*02:06; [26]
  Kd: 2.25 nM
HLA-A*02:17; [26]
  Kd: 338 nM
HLA-A*68:02; [26]
  Kd: 5.34 nM
HLA-A*02:01 [2]; [26]
  Kd: 4.46 nM

## GAVFTEENQW
HLA-B*58:01 [3]; [24]
  Kd: 22.6 nM

## WSTIWRQLY
HLA-A*01:01 [12]; source organism: Mus musculus
  Kd: 10 nM
HLA-B*46:01
  Kd: ≥ 20000 nM
HLA-B*51:01 [15]
  Kd: ≥ 20000 nM
HLA-A*69:01 [16]
  Kd: ≥ 20000 nM
HLA-A*26:01 [17]
  Kd: ≥ 20000 nM
HLA-A*02:01 [18]
  Kd: ≥ 20000 nM
HLA-B*39:01
  Kd: ≥ 20000 nM
HLA-B*27:03
  Kd: ≥ 20000 nM

## KAAVEDEEF
HLA-B*57:01; [27]
  Kd: 1670 nM
HLA-B*58:01 [3]; [27]
  Kd: 61.9 nM

## VASAGISYKD
HLA-B*57:01; [26]
  Kd: 4690 nM
HLA-B*58:01 [3]; [26]
  Kd: 3920 nM

## PSEDEQQGH
HLA-B*40:01; [28]
  Kd: ≥ 20000 nM
HLA-A*11:01; [28]
  Kd: ≥ 20000 nM
HLA-A*24:03; [28]
  Kd: ≥ 20000 nM
HLA-A*03:01; [28]
  Kd: ≥ 20000 nM
HLA-A*31:01; [28]
  Kd: ≥ 20000 nM
HLA-B*07:02; [28]
  Kd: ≥ 20000 nM
HLA-B*08:01 [6]; [28]
  Kd: ≥ 20000 nM
HLA-B*27:05; [28]
  Kd: ≥ 20000 nM
HLA-A*69:01 [7]; [28]
  Kd: ≥ 20000 nM
HLA-A*26:01 [8]; [28]
  Kd: ≥ 20000 nM
HLA-A*02:01 [9]; [28]
  Kd: ≥ 20000 nM
HLA-B*58:01 [10]; [28]
  Kd: ≥ 20000 nM
HLA-B*15:01 [11]; [28]
  Kd: ≥ 20000 nM
HLA-B*44:02; [28]
  Kd: ≥ 20000 nM
HLA-A*01:01 [12]; [28]
  Kd: ≥ 20000 nM

## IMAIGIVSI
HLA-A*02:03; [21]
  Kd: 13.4 nM
HLA-A*32:01; [21]
  Kd: 77.6 nM
HLA-A*02:17; [21]
  Kd: 699 nM
HLA-A*02:01 [2]; [21]
  Kd: 13.2 nM

## LTSKELMMAT
HLA-B*57:01; [20]
  Kd: ≥ 29800 nM
HLA-B*58:01 [3]; [20]
  Kd: 1130 nM

## LYILGLFKF
HLA-A*24:03; source organism: Orthohantavirus hantanense
  Kd: 115 nM

## ILIGVIITW
HLA-A*32:01; [20]
  Kd: ≥ 23500 nM
HLA-B*57:01; [20]
  Kd: 352 nM
HLA-B*58:01 [3]; [20]
  Kd: 1530 nM

## LSSKPEFCIK
HLA-B*58:01 [3]; [26]
  Kd: 10600 nM

## FVIDNVHTW
HLA-B*53:01
  Kd: 1.22 nM
HLA-A*26:01 [13]; [26]
  Kd: 54.8 nM
HLA-B*58:01 [3]; [26]
  Kd: 17.7 nM

## WMTTEDMLSV
HLA-A*02:03; [21]
  Kd: 8.93 nM
HLA-A*02:06; [21]
  Kd: 10.6 nM
HLA-A*02:17; [19]
  Kd: 593 nM
HLA-A*02:01 [2]; [19]
  Kd: 18.8 nM

## YTMCSGKFSI
HLA-A*02:17; [26]
  Kd: 538 nM
HLA-A*68:02; [26]
  Kd: 1.45 nM
HLA-A*02:01 [2]; [26]
  Kd: 79.8 nM

## TLMLLALIAV
HLA-A*02:03; [21]
  Kd: 29.1 nM
HLA-A*02:06; [21]
  Kd: 52.7 nM
HLA-A*02:17; [19]
  Kd: 9100 nM
HLA-A*02:01 [2]; [19]
  Kd: 7.52 nM
